Among the data in publication PMC12102759 (2025) are screen value values, retold here.

The chains are these.
B1: PEX5 peptide 110-125 (Peroxisomal targeting signal 1 receptor), 16-mer library wild type / PEX14 Pex14 (PEX14 PEX14, residues 16-84) (parent complex)
chain 1: ADLALSENWAQEFLAA
chain 2: TPGSENVLPREPLIATAVKFLQNSRVRQSPLATRRAFLKKKGLTDEEIDMAFQQSGTAADEPSSLGPAT

The variants in this assay derive from B1. The experiment in a line: proteomic peptide phage display deep mutational scan (ProP-PD DMS): M13 P8 16-mer library selected against immobilised GST-tagged bait for four days (rounds), NGS of the eluted pools per day and pseudo-replica; bait immobilised on MaxiSorp plates (10 µg), library pre-cleared on GST, 2 h binding at 4 °C, five washes; one round per day, days 1-4; value from days 2 and 3.
Take chain 1 Q11F: the screen value is 0.000569 average fractional NGS count over selection days 2 and 3 (reads of this peptide / all reads for the bait, averaged over ….

Consider chain 1 Q11W, for which the screen value is 0.0122 average fractional NGS count over selection days 2 and 3 (reads of this peptide / all reads for the bait, averaged over ….

In the case of chain 1 E7W, the screen value was 0.0042 average fractional NGS count over selection days 2 and 3 (reads of this peptide / all reads for the bait, averaged over ….

With chain 1 E7F, the screen value is 0.000467 average fractional NGS count over selection days 2 and 3 (reads of this peptide / all reads for the bait, averaged over ….

Regarding chain 1 E7Y, the screen value is 0.00176 average fractional NGS count over selection days 2 and 3 (reads of this peptide / all reads for the bait, averaged over ….

For chain 1 E7N, the screen value was 0.00129 average fractional NGS count over selection days 2 and 3 (reads of this peptide / all reads for the bait, averaged over ….

For chain 1 E7R, the screen value was 0.00247 average fractional NGS count over selection days 2 and 3 (reads of this peptide / all reads for the bait, averaged over ….

As for chain 1 E7P, the screen value was 0.00244 average fractional NGS count over selection days 2 and 3 (reads of this peptide / all reads for the bait, averaged over ….

Regarding chain 1 E7S, the screen value is 0.00412 average fractional NGS count over selection days 2 and 3 (reads of this peptide / all reads for the bait, averaged over ….

Take chain 1 E7L: the screen value is 0.00102 average fractional NGS count over selection days 2 and 3 (reads of this peptide / all reads for the bait, averaged over ….

For the variant chain 1 E7M, the screen value is 0.0015 average fractional NGS count over selection days 2 and 3 (reads of this peptide / all reads for the bait, averaged over ….

For the variant chain 1 E7A, the screen value is 0.00398 average fractional NGS count over selection days 2 and 3 (reads of this peptide / all reads for the bait, averaged over ….

Take chain 1 E7T: the screen value is 0.00188 average fractional NGS count over selection days 2 and 3 (reads of this peptide / all reads for the bait, averaged over ….

Consider chain 1 E7G, for which the screen value is 0.00129 average fractional NGS count over selection days 2 and 3 (reads of this peptide / all reads for the bait, averaged over ….

Regarding chain 1 E7V, the screen value was 0.000676 average fractional NGS count over selection days 2 and 3 (reads of this peptide / all reads for the bait, averaged over ….

Turning to chain 1 L3T, the screen value was 0.000563 average fractional NGS count over selection days 2 and 3 (reads of this peptide / all reads for the bait, averaged over ….

In the case of chain 1 L3W, the screen value is 0.000685 average fractional NGS count over selection days 2 and 3 (reads of this peptide / all reads for the bait, averaged over ….

In the case of chain 1 L3Q, the screen value was 0.00182 average fractional NGS count over selection days 2 and 3 (reads of this peptide / all reads for the bait, averaged over ….

With chain 1 L3M, the screen value was 0.00299 average fractional NGS count over selection days 2 and 3 (reads of this peptide / all reads for the bait, averaged over ….

With chain 1 L3A, the screen value is 0.00097 average fractional NGS count over selection days 2 and 3 (reads of this peptide / all reads for the bait, averaged over ….

Regarding chain 1 L3H, the screen value was 0.00618 average fractional NGS count over selection days 2 and 3 (reads of this peptide / all reads for the bait, averaged over ….

As to chain 1 L3I, the screen value is 0.000729 average fractional NGS count over selection days 2 and 3 (reads of this peptide / all reads for the bait, averaged over ….

As for chain 1 L3N, the screen value was 0.000429 average fractional NGS count over selection days 2 and 3 (reads of this peptide / all reads for the bait, averaged over ….

For chain 1 E12P, the screen value was 0.000686 average fractional NGS count over selection days 2 and 3 (reads of this peptide / all reads for the bait, averaged over ….

With chain 1 E12W, the screen value was 0.0033 average fractional NGS count over selection days 2 and 3 (reads of this peptide / all reads for the bait, averaged over ….

Turning to chain 1 E12H, the screen value is 0.00205 average fractional NGS count over selection days 2 and 3 (reads of this peptide / all reads for the bait, averaged over ….

Consider chain 1 E12S, for which the screen value was 0.00196 average fractional NGS count over selection days 2 and 3 (reads of this peptide / all reads for the bait, averaged over ….

As to chain 1 E12V, the screen value is 0.00245 average fractional NGS count over selection days 2 and 3 (reads of this peptide / all reads for the bait, averaged over ….

chain 1 E12I: the screen value is 0.00181 average fractional NGS count over selection days 2 and 3 (reads of this peptide / all reads for the bait, averaged over ….

Take chain 1 N8D: the screen value is 0.00107 average fractional NGS count over selection days 2 and 3 (reads of this peptide / all reads for the bait, averaged over ….

With chain 1 N8H, the screen value is 0.00161 average fractional NGS count over selection days 2 and 3 (reads of this peptide / all reads for the bait, averaged over ….

chain 1 N8L: the screen value was 0.000366 average fractional NGS count over selection days 2 and 3 (reads of this peptide / all reads for the bait, averaged over ….

Take chain 1 N8P: the screen value was 0.000567 average fractional NGS count over selection days 2 and 3 (reads of this peptide / all reads for the bait, averaged over ….

Regarding chain 1 N8G, the screen value was 0.00135 average fractional NGS count over selection days 2 and 3 (reads of this peptide / all reads for the bait, averaged over ….

In the case of chain 1 N8W, the screen value is 0.00165 average fractional NGS count over selection days 2 and 3 (reads of this peptide / all reads for the bait, averaged over ….

With chain 1 N8E, the screen value was 0.00099 average fractional NGS count over selection days 2 and 3 (reads of this peptide / all reads for the bait, averaged over ….

On to chain 1 N8I, for which the screen value was 0.0016 average fractional NGS count over selection days 2 and 3 (reads of this peptide / all reads for the bait, averaged over ….

Take chain 1 N8S: the screen value was 0.00269 average fractional NGS count over selection days 2 and 3 (reads of this peptide / all reads for the bait, averaged over ….

In the case of chain 1 N8F, the screen value was 0.00191 average fractional NGS count over selection days 2 and 3 (reads of this peptide / all reads for the bait, averaged over ….

In the case of chain 1 A4V, the screen value was 0.000411 average fractional NGS count over selection days 2 and 3 (reads of this peptide / all reads for the bait, averaged over ….

Turning to chain 1 A4I, the screen value was 0.000694 average fractional NGS count over selection days 2 and 3 (reads of this peptide / all reads for the bait, averaged over ….

Turning to chain 1 A4N, the screen value is 0.000393 average fractional NGS count over selection days 2 and 3 (reads of this peptide / all reads for the bait, averaged over ….

chain 1 A4H: the screen value was 0.00244 average fractional NGS count over selection days 2 and 3 (reads of this peptide / all reads for the bait, averaged over ….

Regarding chain 1 A4P, the screen value was 0.00132 average fractional NGS count over selection days 2 and 3 (reads of this peptide / all reads for the bait, averaged over ….

As to chain 1 A4T, the screen value was 0.00418 average fractional NGS count over selection days 2 and 3 (reads of this peptide / all reads for the bait, averaged over ….

For chain 1 D2K, the screen value was 0.000496 average fractional NGS count over selection days 2 and 3 (reads of this peptide / all reads for the bait, averaged over ….

Turning to chain 1 D2L, the screen value was 0.000809 average fractional NGS count over selection days 2 and 3 (reads of this peptide / all reads for the bait, averaged over ….

As to chain 1 D2R, the screen value was 0.000895 average fractional NGS count over selection days 2 and 3 (reads of this peptide / all reads for the bait, averaged over ….

For the variant chain 1 D2Y, the screen value was 0.000446 average fractional NGS count over selection days 2 and 3 (reads of this peptide / all reads for the bait, averaged over ….

With chain 1 D2P, the screen value was 0.00139 average fractional NGS count over selection days 2 and 3 (reads of this peptide / all reads for the bait, averaged over ….

Regarding chain 1 D2W, the screen value was 0.000382 average fractional NGS count over selection days 2 and 3 (reads of this peptide / all reads for the bait, averaged over ….

As for chain 1 D2A, the screen value is 0.00157 average fractional NGS count over selection days 2 and 3 (reads of this peptide / all reads for the bait, averaged over ….

Consider chain 1 F13I, for which the screen value is 0.000603 average fractional NGS count over selection days 2 and 3 (reads of this peptide / all reads for the bait, averaged over ….

With chain 1 F13H, the screen value is 0.00342 average fractional NGS count over selection days 2 and 3 (reads of this peptide / all reads for the bait, averaged over ….

In the case of chain 1 F13R, the screen value is 0.000386 average fractional NGS count over selection days 2 and 3 (reads of this peptide / all reads for the bait, averaged over ….

In the case of chain 1 F13Y, the screen value was 0.00124 average fractional NGS count over selection days 2 and 3 (reads of this peptide / all reads for the bait, averaged over ….

Consider chain 1 L14K, for which the screen value was 0.000342 average fractional NGS count over selection days 2 and 3 (reads of this peptide / all reads for the bait, averaged over ….

For chain 1 L14R, the screen value was 0.000944 average fractional NGS count over selection days 2 and 3 (reads of this peptide / all reads for the bait, averaged over ….

As to chain 1 L14T, the screen value is 0.00188 average fractional NGS count over selection days 2 and 3 (reads of this peptide / all reads for the bait, averaged over ….

As to chain 1 L14D, the screen value is 0.000896 average fractional NGS count over selection days 2 and 3 (reads of this peptide / all reads for the bait, averaged over ….

Consider chain 1 L14Q, for which the screen value was 0.000996 average fractional NGS count over selection days 2 and 3 (reads of this peptide / all reads for the bait, averaged over ….

chain 1 L14S: the screen value was 0.00136 average fractional NGS count over selection days 2 and 3 (reads of this peptide / all reads for the bait, averaged over ….

For the variant chain 1 L14F, the screen value is 0.00346 average fractional NGS count over selection days 2 and 3 (reads of this peptide / all reads for the bait, averaged over ….

As to chain 1 L5H, the screen value was 0.00347 average fractional NGS count over selection days 2 and 3 (reads of this peptide / all reads for the bait, averaged over ….

Turning to chain 1 L5M, the screen value was 0.000827 average fractional NGS count over selection days 2 and 3 (reads of this peptide / all reads for the bait, averaged over ….

Turning to chain 1 L5T, the screen value is 0.000402 average fractional NGS count over selection days 2 and 3 (reads of this peptide / all reads for the bait, averaged over ….

On to chain 1 L5P, for which the screen value is 0.000702 average fractional NGS count over selection days 2 and 3 (reads of this peptide / all reads for the bait, averaged over ….

On to chain 1 L5Q, for which the screen value is 0.000395 average fractional NGS count over selection days 2 and 3 (reads of this peptide / all reads for the bait, averaged over ….

As for chain 1 L5K, the screen value is 0.000511 average fractional NGS count over selection days 2 and 3 (reads of this peptide / all reads for the bait, averaged over ….

Consider chain 1 A1Y, for which the screen value was 0.000485 average fractional NGS count over selection days 2 and 3 (reads of this peptide / all reads for the bait, averaged over ….

In the case of chain 1 A1F, the screen value was 0.00127 average fractional NGS count over selection days 2 and 3 (reads of this peptide / all reads for the bait, averaged over ….

chain 1 A1T: the screen value is 0.00109 average fractional NGS count over selection days 2 and 3 (reads of this peptide / all reads for the bait, averaged over ….

Regarding chain 1 A1N, the screen value was 0.00108 average fractional NGS count over selection days 2 and 3 (reads of this peptide / all reads for the bait, averaged over ….

On to chain 1 A1G, for which the screen value is 0.000525 average fractional NGS count over selection days 2 and 3 (reads of this peptide / all reads for the bait, averaged over ….

As to chain 1 A1E, the screen value was 0.00113 average fractional NGS count over selection days 2 and 3 (reads of this peptide / all reads for the bait, averaged over ….
